Laboratory results published in paper PMC8837141, “Structural and Functional Differences between Homologous Bacterial Ribonucleases” (International Journal of Molecular Sciences, 2022).

What was measured:
[1] = target: balifase (Bacillus licheniformis); test: SEC; size-exclusion chromatography of the purified RNases; molecular weights from the elution profile of marker proteins; column and buffer not told
[2] = target: balnase (Bacillus altitudinis); test: as above
[3] = target: the molecule itself; test: as above
[4] = target: the molecule itself; test: dynamic light scattering; Zetasizer Nano ZS; RNase diluted with ultrapure water, filtered, sonicated for 2 min; particle size by volume distribution; ten runs of 30 s

Work on balifase (enzyme) yielded a stoichiometry N [1] of 2.

balnase (enzyme) showed a stoichiometry N [2] of 2.

B1: barnase (enzyme, Bacillus amyloliquefaciens, UniProt P00648 48-157, looked up)
chain: AQVINTFDGVADYLQTYHKLPDNYITKSEAQALGWVASKGNLADVAPGKSIGGDIFSNREGKLPGKSGRTWREADINYTSGFRNSDRILYSSDWLIYKTTDHYQTFTKIR
notes: barnase, guanyl-preferring ribonuclease of Bacillus amyloliquefaciens; also called RNase from B. amyloliquefaciens; source: homogeneous protein preparation, obtained using previously described three-step procedure [19,30]
B1 was tested, and the “stoichiometry N” value [3] was 2.

B2: binase (enzyme, Bacillus pumilus, UniProt P00649 54-162, looked up)
chain: AVINTFDGVADYLIRYKRLPDNYITKSQASALGWVASKGNLAEVAPGKSIGGDVFSNREGRLPSASGRTWREADINYVSGFRNADRLVYSSDWLIYKTTDHYATFTRIR
notes: binase, guanyl-preferring ribonuclease of Bacillus pumilus (~12 kDa), N1/T1/U2 family (IPR000026); also called RNase from B. pumilus; source: homogeneous protein preparation, obtained using previously described three-step procedure [19,30]
B2 was tested, and the “stoichiometry N” value [4] was 2.
